Molecular target: T1, human apical domain TfR (human, UniProt P02786 198-378)
T1 construct: The SPR analyte is printed only as "human apical domain TfR"; also called human TfR; human transferrin receptor 1 apical domain
Test: Biacore SPR as in Example 2; steady-state fit
Procedure: To determine whether SGSH-Fc fusion proteins with engineered TfR binding affects the ability of the modified Fc domain to interact with human TfR, the affinity of ETV: SGSH Bizyme Structure 1 (Example 1) for human TfR was assessed using a Biacore™ surface plasmon resonance assay. Biacore™ Series S CM5 sensor chips were immobilized with anti-human Fab (human Fab capture kit from GE Healthcare). 5 μg/mL of the SGSH-Fc fusion proteins were captured for 1 minute on each flow cell and serial 3-fold dilutions of human apical domain TfR were injected at a flow rate of 30 μL/min. Each sample was analyzed with a 3-minute association and a 3-minute dissociation. After each injection, the chip was regenerated using 10 mM glycine-HCl (pH 2.1). Binding response was corrected by subtracting the RU from a flow cell capturing an irrelevant IgG at similar density. Steady-state affinities were obtained by fitting the response at equilibrium against the concentration using Biacore™ T200 Evaluation Software v3.1. Biacore™ analysis established that SGSH-Fc fusion proteins with a TfR-binding site engineered into the Fc region bind to human TfR.

T1 sequence (P02786 198-378 limits assumed): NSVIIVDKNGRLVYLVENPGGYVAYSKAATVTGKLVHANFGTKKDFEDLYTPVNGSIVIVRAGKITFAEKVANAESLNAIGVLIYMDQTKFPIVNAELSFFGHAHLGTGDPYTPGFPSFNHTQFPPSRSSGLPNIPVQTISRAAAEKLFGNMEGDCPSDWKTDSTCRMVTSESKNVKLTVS

Kd: 340 nM
B1: ETV:SGSH Bizyme Structure 4 (Fc fusion)
chain 1: RPRNALLLLADDGGFESGAYNNSAIATPHLDALARRSLLFRNAFTSVSSCSPSRASLLTGLPQHQNGMYGLHQDVHHFNSFDKVRSLPLLLSQAGVRTGIIGKKHVGPETVYPFDFAYTEENGSVLQVGRNITRIKLLVRKFLQTQDDRPFFLYVAFHDPHRCGHSQPQYGTFCEKFGNGESGMGRIPDWTPQAYDPLDVLVPYFVPNTPAARADLAAQYTTVGRMDQGVGLVLQELRDAGVLNDTLVIFTSDNGIPFPSGRTNLYWPGTAEPLLVSSPEHPKRWGQVSEAYVSLLDLTPTILDWFSIPYPSYAIFGSKTIHLTGRSLLPALEAEPLWATVFGSQSHHEVTMSYPMRSVQHRHFRLVHNLNFKMPFPIDQDFYVSPTFQDLLNRTTAGQPTGWYKDLRHYYYRARWELYDRSRDPHETQNLATDPRFAQLLEMLRDQLAKWQWETHDPWVCAPDGVLEEKLSPQCQPLHNELGGGGSDKTHTCPPCPAPEAAGGPSVFLFPPKPKDTLMISRTPEVTCVVVDVSHEDPEVKFNWYVDGVEVHNAKTKPREEQYNSTYRVVSVLTVLHQDWLNGKEYKCKVSNKALSAPIEKTISKAKGQPREPQVYTLPPSRDELTKNQVSLSCAVKGFYPSDIAVEWESNGQPENNYKTTPPVLDSDGSFFLVSKLTVDKSRWQQGNVFSCSVMHEALHNHYTQKSLSLSPGK
chain 2: RPRNALLLLADDGGFESGAYNNSAIATPHLDALARRSLLFRNAFTSVSSCSPSRASLLTGLPQHQNGMYGLHQDVHHFNSFDKVRSLPLLLSQAGVRTGIIGKKHVGPETVYPFDFAYTEENGSVLQVGRNITRIKLLVRKFLQTQDDRPFFLYVAFHDPHRCGHSQPQYGTFCEKFGNGESGMGRIPDWTPQAYDPLDVLVPYFVPNTPAARADLAAQYTTVGRMDQGVGLVLQELRDAGVLNDTLVIFTSDNGIPFPSGRTNLYWPGTAEPLLVSSPEHPKRWGQVSEAYVSLLDLTPTILDWFSIPYPSYAIFGSKTIHLTGRSLLPALEAEPLWATVFGSQSHHEVTMSYPMRSVQHRHFRLVHNLNFKMPFPIDQDFYVSPTFQDLLNRTTAGQPTGWYKDLRHYYYRARWELYDRSRDPHETQNLATDPRFAQLLEMLRDQLAKWQWETHDPWVCAPDGVLEEKLSPQCQPLHNELGGGGSDKTHTCPPCPAPEAAGGPSVFLFPPKPKDTLMISRTPEVTCVVVDVSHEDPEVKFNWYVDGVEVHNAKTKPREEQYNSTYRVVSVLTVLHQDWLNGKEYKCKVSNKALSAPIEKTISKAKGQPREPQVYTLPPSRDELTKNQVSLWCLVKGFYPSDIAVEWESYGTEWANYKTTPPVLDSDGSFFLYSKLTVTKEEWQQGFVFSCSVMHEALHNHYTQKSLSLSPGK
modifications: SGSH cysteine at position 70 (full-length SGSH numbering) largely converted to formylglycine (fGly 99% in Table 2); the fGly form is SEQ ID NO:95; SGSH cysteine at position 70 (full-length SGSH numbering) largely converted to formylglycine (fGly 99% in Table 2); the fGly form is SEQ ID NO:67
notes: Heterodimer; The preparation may be a mixture; also called fourth "N-terminal bizyme" SGSH-Fc fusion protein; P329S variant of Bizyme Structure 1
